Results as given in publication PMC8646660 (2021).

What was measured:
[1] = target: SARS-CoV-2 S receptor-binding domain (RBD), biotinylated (SARS-CoV-2, UniProt P0DTC2 330-531); experiment: BLI
[2] = target: biotinylated SARS-CoV RBD (SARS-CoV, UniProt P59594, biotin); experiment: BLI

B1: scFD20 (single-chain variable fragment of FD20) (scFv, V domains shown)
VH: QVQLQQSGAEVKKPGSSVKVSCKASGGTFSSYAFSWVRQAPGQGLEWMGRIIPILGIANYAQKFQGRVTITADISTSTAYMALSSLRSEDTAVYYCAKVEVNIGMDDYYYYYGMDVWGQGTTVTVSS
VL: not shown
B1 showed a koff [1] of 0.000664 s⁻¹ and a koff [2] of 0.00054 s⁻¹.
